Measured values: patent publication US8525237 (University of California, dated 2013)
Ends that are not written are not given here.

Target: transferrin receptor (TfR) (UniProt P02786 89-760, limits assumed)
Assay: phage-based ELISA (assay not given)

Chain of transferrin receptor (TfR) (P02786 89-760 limits assumed): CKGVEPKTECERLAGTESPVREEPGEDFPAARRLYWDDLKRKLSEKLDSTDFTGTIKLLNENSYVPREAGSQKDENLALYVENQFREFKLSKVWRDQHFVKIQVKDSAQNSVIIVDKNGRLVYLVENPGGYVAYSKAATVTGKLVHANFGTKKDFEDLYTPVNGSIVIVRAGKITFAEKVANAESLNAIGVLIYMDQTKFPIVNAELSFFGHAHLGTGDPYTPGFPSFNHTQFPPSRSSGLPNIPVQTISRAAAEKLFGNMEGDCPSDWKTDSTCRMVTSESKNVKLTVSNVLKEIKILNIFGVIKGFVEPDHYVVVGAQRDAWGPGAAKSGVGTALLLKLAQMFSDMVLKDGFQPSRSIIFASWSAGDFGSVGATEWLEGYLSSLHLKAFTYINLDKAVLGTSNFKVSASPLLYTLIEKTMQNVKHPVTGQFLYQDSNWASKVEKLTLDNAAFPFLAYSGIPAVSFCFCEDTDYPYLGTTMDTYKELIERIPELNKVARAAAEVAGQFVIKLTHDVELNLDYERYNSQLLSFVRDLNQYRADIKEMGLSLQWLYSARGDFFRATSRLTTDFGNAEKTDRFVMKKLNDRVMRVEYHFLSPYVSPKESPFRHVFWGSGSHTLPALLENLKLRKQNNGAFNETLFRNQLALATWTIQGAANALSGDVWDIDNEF

B1: PSMA-3 peptide displayed on M13 phage (peptide, not shown: large carriers)
peptide: SECVEVFQNSCDW
modifications: not fully specified; cysteine pairing not given here
notes: Tested on phage in ELISA and as phage encapsulated in PEDOT nanowires; also called second generation peptide; PSMA-3 viruses
- binding result: no binding
